Legend:
Experiment in all cases: Kinase Profiling Assay
Assay type in all cases: biochemical
Conditions in all cases: 100 μM
IRAK4(h) = biological target: T1, IRAK4(h) (Homo sapiens, UniProt Q9NWZ3)
T1 sequence (Q9NWZ3 1-460): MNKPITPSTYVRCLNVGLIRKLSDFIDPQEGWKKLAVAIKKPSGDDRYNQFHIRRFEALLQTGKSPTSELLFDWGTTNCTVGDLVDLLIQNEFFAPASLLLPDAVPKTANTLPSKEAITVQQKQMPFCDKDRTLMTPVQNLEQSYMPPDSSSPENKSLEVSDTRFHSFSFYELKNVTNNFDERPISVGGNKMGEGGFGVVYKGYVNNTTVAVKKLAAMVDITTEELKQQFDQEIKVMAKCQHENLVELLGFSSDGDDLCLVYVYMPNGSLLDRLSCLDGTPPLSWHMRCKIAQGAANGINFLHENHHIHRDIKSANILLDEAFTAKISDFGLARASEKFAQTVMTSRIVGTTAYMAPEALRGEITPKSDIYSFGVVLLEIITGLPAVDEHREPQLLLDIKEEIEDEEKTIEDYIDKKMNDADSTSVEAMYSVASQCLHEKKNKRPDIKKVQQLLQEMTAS

Rsk4(h) = Rsk4(h) (Homo sapiens, UniProt Q9UK32)
Rsk4(h), sequence (Q9UK32 whole entry): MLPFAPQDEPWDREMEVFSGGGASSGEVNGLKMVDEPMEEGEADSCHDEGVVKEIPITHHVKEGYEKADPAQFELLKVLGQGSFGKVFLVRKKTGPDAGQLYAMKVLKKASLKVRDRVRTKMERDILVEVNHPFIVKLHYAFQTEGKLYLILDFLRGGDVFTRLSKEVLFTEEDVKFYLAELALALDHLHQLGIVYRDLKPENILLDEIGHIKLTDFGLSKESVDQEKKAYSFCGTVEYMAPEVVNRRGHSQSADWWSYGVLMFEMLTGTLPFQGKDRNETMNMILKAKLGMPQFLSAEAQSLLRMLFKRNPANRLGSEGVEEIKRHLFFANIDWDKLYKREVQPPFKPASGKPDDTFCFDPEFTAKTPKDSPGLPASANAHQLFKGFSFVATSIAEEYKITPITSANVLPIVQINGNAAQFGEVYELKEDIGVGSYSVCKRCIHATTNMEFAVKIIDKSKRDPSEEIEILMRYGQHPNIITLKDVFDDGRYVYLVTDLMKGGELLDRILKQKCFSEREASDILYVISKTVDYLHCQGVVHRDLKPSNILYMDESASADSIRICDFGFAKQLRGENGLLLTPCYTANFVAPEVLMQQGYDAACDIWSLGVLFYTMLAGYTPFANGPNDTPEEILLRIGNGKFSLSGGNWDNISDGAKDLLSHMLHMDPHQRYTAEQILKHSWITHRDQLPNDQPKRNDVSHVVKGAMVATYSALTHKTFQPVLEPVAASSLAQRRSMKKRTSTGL

PKCζ(h) = biological target: T2, PKCζ(h) (Homo sapiens, UniProt Q05513)
T2 sequence (Q05513 1-592): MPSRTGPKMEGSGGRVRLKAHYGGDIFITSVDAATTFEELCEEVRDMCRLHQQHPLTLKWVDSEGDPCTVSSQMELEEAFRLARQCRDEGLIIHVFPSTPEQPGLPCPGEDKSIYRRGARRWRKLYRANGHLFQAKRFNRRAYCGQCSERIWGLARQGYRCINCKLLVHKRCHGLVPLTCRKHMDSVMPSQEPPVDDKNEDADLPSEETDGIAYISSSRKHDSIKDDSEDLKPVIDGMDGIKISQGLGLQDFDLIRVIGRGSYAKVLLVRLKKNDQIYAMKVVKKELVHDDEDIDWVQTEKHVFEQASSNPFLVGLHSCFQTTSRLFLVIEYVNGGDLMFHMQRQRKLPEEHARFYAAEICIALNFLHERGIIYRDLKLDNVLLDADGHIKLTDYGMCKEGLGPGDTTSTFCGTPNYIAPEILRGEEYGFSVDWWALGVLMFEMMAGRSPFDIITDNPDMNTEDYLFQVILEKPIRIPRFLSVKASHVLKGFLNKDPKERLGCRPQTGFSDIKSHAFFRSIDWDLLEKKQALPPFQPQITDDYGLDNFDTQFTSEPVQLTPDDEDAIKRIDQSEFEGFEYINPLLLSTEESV

DAPK2(h) = DAPK2(h) (Homo sapiens, UniProt Q9UIK4)
DAPK2(h), sequence (Q9UIK4 whole entry): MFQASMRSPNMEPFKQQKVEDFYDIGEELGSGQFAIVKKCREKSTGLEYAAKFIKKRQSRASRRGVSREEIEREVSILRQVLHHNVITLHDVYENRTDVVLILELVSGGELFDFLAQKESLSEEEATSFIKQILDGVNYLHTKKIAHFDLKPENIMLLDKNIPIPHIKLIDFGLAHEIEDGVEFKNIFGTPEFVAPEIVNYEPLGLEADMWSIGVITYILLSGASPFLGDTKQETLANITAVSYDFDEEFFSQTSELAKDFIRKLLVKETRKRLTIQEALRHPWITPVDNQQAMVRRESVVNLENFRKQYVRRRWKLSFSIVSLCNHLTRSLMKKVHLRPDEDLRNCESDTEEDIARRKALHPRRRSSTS

PKCγ(h) = PKCγ(h) (Homo sapiens, UniProt P05129)
Yes(h) = Yes(h) (Homo sapiens, UniProt P07947)
Yes(h), sequence (P07947 whole entry): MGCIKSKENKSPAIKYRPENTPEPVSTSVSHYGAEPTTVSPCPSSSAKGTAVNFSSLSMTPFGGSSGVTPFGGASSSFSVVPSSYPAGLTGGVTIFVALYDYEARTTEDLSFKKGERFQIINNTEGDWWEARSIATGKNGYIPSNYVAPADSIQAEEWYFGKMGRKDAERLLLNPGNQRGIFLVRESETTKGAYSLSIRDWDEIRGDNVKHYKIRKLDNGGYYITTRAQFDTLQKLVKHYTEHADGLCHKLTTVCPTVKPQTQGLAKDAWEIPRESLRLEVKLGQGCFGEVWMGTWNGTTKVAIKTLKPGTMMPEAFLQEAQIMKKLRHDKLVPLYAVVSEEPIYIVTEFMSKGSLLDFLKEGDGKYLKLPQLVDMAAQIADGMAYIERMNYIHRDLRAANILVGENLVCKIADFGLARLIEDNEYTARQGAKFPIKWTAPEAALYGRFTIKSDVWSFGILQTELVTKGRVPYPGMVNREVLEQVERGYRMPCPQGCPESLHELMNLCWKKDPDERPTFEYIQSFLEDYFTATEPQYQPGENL

Met(D1246N)(h) = Met(D1246N)(h) (Homo sapiens, UniProt P08581, D1228N)
EphA7(h) = EphA7(h) (Homo sapiens, UniProt Q15375)
EphA7(h), sequence (Q15375 28-998): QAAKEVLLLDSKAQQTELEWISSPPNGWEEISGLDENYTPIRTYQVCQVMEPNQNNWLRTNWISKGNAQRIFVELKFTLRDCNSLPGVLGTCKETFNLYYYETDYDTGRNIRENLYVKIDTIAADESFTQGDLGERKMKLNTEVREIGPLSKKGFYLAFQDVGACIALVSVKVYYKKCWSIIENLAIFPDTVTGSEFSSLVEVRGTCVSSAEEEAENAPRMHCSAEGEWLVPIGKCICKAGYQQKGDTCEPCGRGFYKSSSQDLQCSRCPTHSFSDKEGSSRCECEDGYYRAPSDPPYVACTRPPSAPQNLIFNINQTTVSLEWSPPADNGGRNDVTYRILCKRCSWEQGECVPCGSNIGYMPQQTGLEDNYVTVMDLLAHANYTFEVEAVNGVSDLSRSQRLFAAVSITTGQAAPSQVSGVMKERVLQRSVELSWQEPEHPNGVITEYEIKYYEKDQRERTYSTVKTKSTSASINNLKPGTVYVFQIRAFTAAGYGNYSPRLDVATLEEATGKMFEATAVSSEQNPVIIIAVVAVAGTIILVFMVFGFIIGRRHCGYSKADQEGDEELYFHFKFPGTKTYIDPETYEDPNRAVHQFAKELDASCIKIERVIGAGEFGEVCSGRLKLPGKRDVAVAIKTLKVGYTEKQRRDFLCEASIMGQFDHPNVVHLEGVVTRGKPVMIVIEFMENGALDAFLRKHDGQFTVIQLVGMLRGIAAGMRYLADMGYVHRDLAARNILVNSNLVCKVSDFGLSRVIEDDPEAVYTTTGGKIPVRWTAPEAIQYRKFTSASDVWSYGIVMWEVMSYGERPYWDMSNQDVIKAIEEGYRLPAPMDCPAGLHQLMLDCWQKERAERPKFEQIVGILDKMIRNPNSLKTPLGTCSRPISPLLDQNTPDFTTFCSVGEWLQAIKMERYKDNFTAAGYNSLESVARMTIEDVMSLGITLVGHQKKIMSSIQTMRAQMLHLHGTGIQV

NLK(h) = biological target: T3, NLK(h) (Homo sapiens, UniProt Q9UBE8)
T3 sequence (Q9UBE8 1-527): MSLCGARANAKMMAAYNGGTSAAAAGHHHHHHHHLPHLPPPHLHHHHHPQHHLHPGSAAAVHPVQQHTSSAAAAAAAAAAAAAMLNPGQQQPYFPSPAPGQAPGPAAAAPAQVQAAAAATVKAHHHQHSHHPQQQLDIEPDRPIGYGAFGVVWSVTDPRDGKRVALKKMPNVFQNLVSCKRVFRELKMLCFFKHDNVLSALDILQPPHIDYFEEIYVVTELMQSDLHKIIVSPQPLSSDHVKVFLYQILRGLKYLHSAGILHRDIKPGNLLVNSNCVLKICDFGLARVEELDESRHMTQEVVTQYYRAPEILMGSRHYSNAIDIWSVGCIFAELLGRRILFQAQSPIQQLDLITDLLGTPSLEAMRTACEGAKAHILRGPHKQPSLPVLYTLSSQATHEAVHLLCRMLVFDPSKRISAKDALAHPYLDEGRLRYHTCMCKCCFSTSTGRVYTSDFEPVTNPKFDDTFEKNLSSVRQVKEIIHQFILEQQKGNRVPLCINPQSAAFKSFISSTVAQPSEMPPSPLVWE

CHK1(h) = biological target: T4, CHK1(h) (Homo sapiens, UniProt O14757)
T4 sequence (O14757 1-476): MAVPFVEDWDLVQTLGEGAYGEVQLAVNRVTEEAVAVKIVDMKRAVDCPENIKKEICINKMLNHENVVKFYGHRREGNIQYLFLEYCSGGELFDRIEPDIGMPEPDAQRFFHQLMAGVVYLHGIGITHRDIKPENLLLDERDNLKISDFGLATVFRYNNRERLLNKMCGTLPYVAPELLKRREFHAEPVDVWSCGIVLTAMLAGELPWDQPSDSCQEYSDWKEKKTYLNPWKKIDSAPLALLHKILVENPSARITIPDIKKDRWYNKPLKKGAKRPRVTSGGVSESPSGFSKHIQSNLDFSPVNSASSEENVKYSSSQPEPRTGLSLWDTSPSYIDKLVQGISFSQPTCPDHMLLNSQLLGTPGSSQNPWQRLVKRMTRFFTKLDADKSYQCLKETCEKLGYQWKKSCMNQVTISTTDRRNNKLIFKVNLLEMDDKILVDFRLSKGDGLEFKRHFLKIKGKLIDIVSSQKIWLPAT

PrKX(h) = biological target: T5, PrKX(h) (Homo sapiens, UniProt P51817)
T5 sequence (P51817 1-358): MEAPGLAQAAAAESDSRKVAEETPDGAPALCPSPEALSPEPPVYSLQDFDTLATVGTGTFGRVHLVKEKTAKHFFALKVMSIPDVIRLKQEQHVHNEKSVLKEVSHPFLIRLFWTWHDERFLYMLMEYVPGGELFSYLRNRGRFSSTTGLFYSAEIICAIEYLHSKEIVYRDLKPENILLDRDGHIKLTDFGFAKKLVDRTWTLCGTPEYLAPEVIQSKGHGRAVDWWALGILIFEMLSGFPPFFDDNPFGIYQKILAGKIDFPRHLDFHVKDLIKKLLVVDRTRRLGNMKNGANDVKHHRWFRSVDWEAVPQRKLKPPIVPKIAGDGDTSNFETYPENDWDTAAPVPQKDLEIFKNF

| Sequence | % activity (IRAK4(h)) | % activity (Rsk4(h)) | % activity (PKCζ(h)) | % activity (DAPK2(h)) | % activity (PKCγ(h)) | % activity (Yes(h)) | % activity (Met(D1246N)(h)) | % activity (EphA7(h)) | % activity (NLK(h)) | % activity (CHK1(h)) | % activity (PrKX(h)) |
| --- | --- | --- | --- | --- | --- | --- | --- | --- | --- | --- | --- |
| YARAAARQARAKALNRQLGVA [MMI-0200] | 110% | 125% | 98% | 92% | 101% | 93% | 149% | 220% |  |  |  |
| FAKLAARLYRKALARQLGVAA [MMI-0300] | 59% | 90% | 81% | 32% | 89% | 67% | 82% | 159% | 87% | 91% | 61% |
| KAFAKLAARLYRKALARQLGVAA [MMI-0400] | 59% | 91% | 75% | 16% | 79% | 14% | 31% | 222% | 90% | 87% | 76% |
| HRRIKAWLKKIKALARQLGVAA [MMI-0500] | 3% | 29% | 7% | 3% | 6% |  | 90% | 189% | 19% | 65% | 57% |

Reference: patent US20190134153A1, “IMMUNOMODULATORY EFFECT OF INHALED KINASE INHIBITOR PEPTIDES IN LUNG” (MOERAE MATRIX, INC., priority 2017, published 2019)
